Results published in patent US20210261685A1.

Biological target: human MerTK endogenously expressed on cells (SK-MEL-5 cells; human macrophages) (human) (UniProt Q12866)
Assay: cell-based or functional assay

Chain of human MerTK endogenously expressed on cells (SK-MEL-5 cells; human macrophages) (human) (Q12866 21-999 limits assumed): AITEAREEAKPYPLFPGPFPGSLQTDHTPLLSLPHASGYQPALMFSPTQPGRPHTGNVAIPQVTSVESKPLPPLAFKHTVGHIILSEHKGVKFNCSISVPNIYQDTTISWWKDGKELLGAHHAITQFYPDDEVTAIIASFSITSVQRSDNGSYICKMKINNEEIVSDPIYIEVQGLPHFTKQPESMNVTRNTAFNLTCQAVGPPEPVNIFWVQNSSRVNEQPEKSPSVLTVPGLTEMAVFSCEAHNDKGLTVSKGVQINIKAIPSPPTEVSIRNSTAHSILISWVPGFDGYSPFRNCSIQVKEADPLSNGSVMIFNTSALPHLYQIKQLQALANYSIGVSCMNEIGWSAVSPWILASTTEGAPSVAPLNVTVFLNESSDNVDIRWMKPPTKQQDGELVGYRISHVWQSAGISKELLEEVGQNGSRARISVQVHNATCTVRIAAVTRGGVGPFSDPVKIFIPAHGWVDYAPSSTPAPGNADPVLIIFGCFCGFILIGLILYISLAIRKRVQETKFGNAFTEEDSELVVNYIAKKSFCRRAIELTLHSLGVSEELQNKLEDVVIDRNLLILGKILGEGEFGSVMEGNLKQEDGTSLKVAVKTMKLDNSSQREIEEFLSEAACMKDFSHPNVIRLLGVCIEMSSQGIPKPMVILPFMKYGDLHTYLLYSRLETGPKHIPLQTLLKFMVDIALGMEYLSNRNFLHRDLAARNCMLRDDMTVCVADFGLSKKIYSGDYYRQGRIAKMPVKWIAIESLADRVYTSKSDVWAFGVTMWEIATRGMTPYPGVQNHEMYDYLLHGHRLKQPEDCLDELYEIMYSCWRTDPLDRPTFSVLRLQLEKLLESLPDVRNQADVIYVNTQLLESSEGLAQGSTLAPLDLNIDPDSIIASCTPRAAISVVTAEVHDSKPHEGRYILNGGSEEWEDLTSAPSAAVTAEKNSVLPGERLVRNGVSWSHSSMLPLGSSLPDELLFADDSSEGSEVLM

B1: MTK-22 (antibody, human IgG1, V domains shown)
VH: QVQLQQPGADLVEPGASVKLSCKASGYTFTSYWMHWVKQRPGQGLEWIGEIDPSDSSSNYNQKFKGKATLTVDKSSSTAYMHLNSLTSEDSAVYYCARRYYYGSLYFDNWGQGTTLTVSS
VL: DVVMTQSHKFMSTSVGDRVSITCKASQDVGTAIAWYQQKPGQSPKLLIYWASTRHTGVPDRFTGSRSGTVFTLTISNVQSEDLADYFCQQYTSYPLTFGSGTKLEIK
Gas6-mediated pAKT activity, average IC50, human M2c macrophages: 0.531 nM
